Assay results: PMC9672922 (Cellular and Molecular Gastroenterology and Hepatology, 2022)

Legend:
Assay in all cases: peptide or protein array
[1] = target: casein kinase 1ε (CK1ε) on the ProtoArray Human Protein Microarray (human, UniProt P49674 1-416)
[2] = target: glycogen synthase kinase 3β (GSK3β) on the ProtoArray Human Protein Microarray (human, UniProt P49841 1-420)
[3] = target: T1, chromosome 7 open reading frame 50 on the ProtoArray Human Protein Microarray (human, UniProt Q9BRJ6 1-194)
T1 sequence (looked up): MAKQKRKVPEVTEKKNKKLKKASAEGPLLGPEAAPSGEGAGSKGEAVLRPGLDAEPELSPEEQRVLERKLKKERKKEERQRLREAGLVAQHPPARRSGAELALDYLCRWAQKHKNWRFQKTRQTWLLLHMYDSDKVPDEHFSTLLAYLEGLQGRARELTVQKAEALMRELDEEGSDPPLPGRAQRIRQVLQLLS

[4] = target: mitogen-activated protein kinase kinase 2 (MEK2) on the ProtoArray Human Protein Microarray (human, UniProt P36507 1-400)
[5] = target: carbonic anhydrase 1 on the ProtoArray Human Protein Microarray (human, UniProt P00915 1-261)

Measured: binding result

casein kinase 1ε (CK1ε) on the ProtoArray Human Protein Microarray, sequence (P49674 whole entry): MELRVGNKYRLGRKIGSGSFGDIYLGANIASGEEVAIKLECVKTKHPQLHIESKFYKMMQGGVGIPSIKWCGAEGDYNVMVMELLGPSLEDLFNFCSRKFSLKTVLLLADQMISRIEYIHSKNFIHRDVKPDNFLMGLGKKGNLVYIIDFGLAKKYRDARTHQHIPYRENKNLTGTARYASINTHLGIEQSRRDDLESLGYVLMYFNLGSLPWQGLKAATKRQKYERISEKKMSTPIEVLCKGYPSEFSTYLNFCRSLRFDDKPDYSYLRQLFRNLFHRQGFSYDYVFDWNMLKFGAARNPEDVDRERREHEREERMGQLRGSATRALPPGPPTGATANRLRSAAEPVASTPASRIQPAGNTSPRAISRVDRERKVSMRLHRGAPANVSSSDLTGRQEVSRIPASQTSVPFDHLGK
glycogen synthase kinase 3β (GSK3β) on the ProtoArray Human Protein Microarray, sequence (P49841 whole entry): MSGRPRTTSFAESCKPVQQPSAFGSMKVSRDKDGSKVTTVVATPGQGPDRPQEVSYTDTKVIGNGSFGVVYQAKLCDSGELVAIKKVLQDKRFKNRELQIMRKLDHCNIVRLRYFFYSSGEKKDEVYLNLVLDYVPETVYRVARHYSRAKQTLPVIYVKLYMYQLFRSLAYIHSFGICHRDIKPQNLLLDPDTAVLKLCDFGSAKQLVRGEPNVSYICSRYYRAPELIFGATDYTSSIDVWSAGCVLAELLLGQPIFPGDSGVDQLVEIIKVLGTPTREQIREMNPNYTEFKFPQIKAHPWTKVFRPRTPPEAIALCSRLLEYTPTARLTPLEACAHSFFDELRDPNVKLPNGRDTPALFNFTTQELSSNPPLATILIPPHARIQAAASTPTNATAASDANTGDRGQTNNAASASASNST
carbonic anhydrase 1 on the ProtoArray Human Protein Microarray, sequence (P00915 whole entry): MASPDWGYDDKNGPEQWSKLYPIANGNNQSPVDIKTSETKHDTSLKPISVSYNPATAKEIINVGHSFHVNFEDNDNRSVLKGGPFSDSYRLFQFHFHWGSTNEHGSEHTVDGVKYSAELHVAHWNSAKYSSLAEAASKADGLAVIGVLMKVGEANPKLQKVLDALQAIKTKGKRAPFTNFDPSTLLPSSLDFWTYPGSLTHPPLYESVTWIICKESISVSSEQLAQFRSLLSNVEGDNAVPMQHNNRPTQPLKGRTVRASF

B1: V5-SRGY (RBMY amino acid residues 227–374, 4 repeated SRGY box domains) (domain or fragment, human, UniProt P0DJD3-1 227-374, looked up)
chain: ETRDYAPPSRGYAYRDNGHSNRDEHSSRGYRNHRSSRETRDYAPPSRGHAYRDYGHSRRDESYSRGYRNRRSSRETREYAPPSRGHGYRDYGHSRRHESYSRGYRNHPSSRETRDYAPPHRDYAYRDYGHSSWDEHSSRGYSYHDGYG
binds: all assays above
